Measured values: PMC12392098, “Predicting the DNA binding specificity of transcription factor mutants using family-level biophysically interpretable machine learning”

Legend:
Settings in all cases: protein: recombinant; tags: N-terminal 6xHis; mScarlet fusion; chain copies: 2; label: 32P (SRI primer strand); blunt
ASCL2 DBD R5K = ASCL2 DBD R5K (human, UniProt Q99929 50-102, R55K); assay: EMSA; preferred over CACGTG probe; 32P EMSA: ~50 nM probe, 0.5/1/2 uM protein, 30 min, reagents as in Feng et al., gel at 4 C; fluorescent EMSA: 5x buffer (50 mM Tris pH 7.5, 250 mM NaCl, 5 mM MgCl2, 20% glycerol, 2.5 mM DTT, 2.5 mM EDTA, 250 ug/ml poly(dI-dC), 1 mg/ml BSA) used at 1x plus half volume protein dialysis buffer (20 mM HEPES pH 7.9, 200 mM NaCl, 10% glycerol, 2 mM MgCl2), gel 0.5x TBE at 4 C
ASCL2 DBD R5K+V13R = ASCL2 DBD R5K+V13R (human, UniProt Q99929 50-102, R55K;V63R); assay: EMSA; preferred over CAGCTG probe; 32P EMSA: ~50 nM probe, 0.5/1/2 uM protein, 30 min, reagents as in Feng et al., gel at 4 C; fluorescent EMSA: 5x buffer (50 mM Tris pH 7.5, 250 mM NaCl, 5 mM MgCl2, 20% glycerol, 2.5 mM DTT, 2.5 mM EDTA, 250 ug/ml poly(dI-dC), 1 mg/ml BSA) used at 1x plus half volume protein dialysis buffer (20 mM HEPES pH 7.9, 200 mM NaCl, 10% glycerol, 2 mM MgCl2), gel 0.5x TBE at 4 C
ASCL2 DBD V13R = ASCL2 DBD V13R (human, UniProt Q99929 50-102, V63R); assay: as above
Chain of ASCL2 DBD V13R (Q99929 50-102 V63R): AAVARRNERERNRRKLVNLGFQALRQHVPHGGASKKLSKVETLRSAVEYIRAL

Chain of ASCL2 DBD R5K (Q99929 50-102 R55K): as the sequence (Q99929 50-102 V63R) above, with R6K, R14V counted along it
Chain of ASCL2 DBD R5K+V13R (Q99929 50-102 R55K/V63R): as the sequence (Q99929 50-102 V63R) above, with R6K counted along it

Row | Binder | binding result (ASCL2 DBD R5K) | binding result (ASCL2 DBD R5K+V13R) | binding result (ASCL2 DBD V13R)
1 | CAGCTG probe (dsDNA) DNA 1: TAGCCAATAACTTCGTCCCTCAGCTGCATATAAGGAAGATCTAACCACCAATTTGG DNA 2: CCAAATTGGTGGTTAGATCTTCCTTATATGCAGCTGAGGGACGAAGTTATTGGCTA | binds |  | 
2 | CACGTG probe (dsDNA) DNA 1: TAGCCAATAACTTCGTCCCTCACGTGCATATAAGGAAGATCTAACCACCAATTTGG DNA 2: CCAAATTGGTGGTTAGATCTTCCTTATATGCACGTGAGGGACGAAGTTATTGGCTA |  | binds | binds
